According to PMC3526308:

T1: LtmA (Ms6479) (Mycobacterium smegmatis mc2155, UniProt A0R6A5 1-189)
T1 sequence: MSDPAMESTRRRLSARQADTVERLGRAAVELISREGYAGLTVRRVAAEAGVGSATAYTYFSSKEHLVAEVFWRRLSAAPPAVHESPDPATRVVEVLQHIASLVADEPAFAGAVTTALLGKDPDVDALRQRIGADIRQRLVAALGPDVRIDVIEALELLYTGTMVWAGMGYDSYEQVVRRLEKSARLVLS


Molecular target: T1, LtmA (Ms6479)
Experiment: EMSA

Binder	binding result
Ms6484p5 (dsDNA) DNA 1: CAAACTATAGCAGCTCTCCACCTGACACGGTTTCGGAG DNA 2: CTCCGAAACCGTGTCAGGTGGAGAGCTGCTATAGTTTG	no binding
Ms6484p4 (dsDNA) DNA 1: CTCCGAAACCTCTGGACATGTGTCCAGACTATAGTTTG DNA 2: CAAACTATAGTCTGGACACATGTCCAGAGGTTTCGGAG	binds
